Assay [1] deals with nucleoprotein of influenza virus A/Panama/2007/99 (H3N2) (influenza A virus A/Panama/2007/99 (H3N2)). In words: sandwich CLIA, acridinium label M322211, S/N>=2.1.
In assay [2] the target is nucleoprotein of influenza virus A/Beijing/262/95 (H1N1) (influenza A virus A/Beijing/262/95 (H1N1)). The assay is described as follows: sandwich CLIA, acridinium label M322211, S/N>=2.1.
Assay [3] has as its target T1, nucleoprotein of influenza virus B/Singapore/222/79 (influenza B virus B/Singapore/222/79, UniProt P04666 1-560).
T1 sequence: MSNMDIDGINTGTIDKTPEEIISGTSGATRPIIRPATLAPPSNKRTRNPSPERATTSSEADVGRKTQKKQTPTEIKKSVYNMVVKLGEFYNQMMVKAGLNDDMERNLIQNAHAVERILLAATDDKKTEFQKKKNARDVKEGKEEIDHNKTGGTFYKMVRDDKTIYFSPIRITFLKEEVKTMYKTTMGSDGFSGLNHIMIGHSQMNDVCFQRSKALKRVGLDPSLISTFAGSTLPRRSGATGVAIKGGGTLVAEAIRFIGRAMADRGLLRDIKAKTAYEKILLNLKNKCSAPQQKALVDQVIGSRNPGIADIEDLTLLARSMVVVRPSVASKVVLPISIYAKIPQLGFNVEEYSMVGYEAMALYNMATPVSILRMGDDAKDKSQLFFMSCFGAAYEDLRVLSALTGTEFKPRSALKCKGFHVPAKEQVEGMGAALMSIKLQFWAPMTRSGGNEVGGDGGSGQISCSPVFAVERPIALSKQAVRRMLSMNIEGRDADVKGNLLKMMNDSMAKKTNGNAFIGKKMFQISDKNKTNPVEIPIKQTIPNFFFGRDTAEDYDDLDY
The assay is described as follows: same-clone sandwich CLIA.

Assay [4] has as its target T2, nucleoprotein of influenza virus B/Ann Arbor/1/86 (viral strain) (influenza B virus B/Ann Arbor/1/86, UniProt P11102 1-560).
T2 sequence: T1 sequence with T11A, I21T, I22T, V62I, K65R, A239T, I244T, S465N, V534I, P537Q
The assay is described as follows: same-clone sandwich CLIA.

The target of assay [5] is T3, nucleoprotein of influenza virus B/Panama/45/90 (influenza B virus B/Panama/45/90, UniProt O36433 1-560).
T3 sequence: T1 sequence with I22T, A28T, K131R, T406I
The assay is described as follows: same-clone sandwich CLIA.

Assay [6] has as its target nucleoprotein of influenza virus B/Victoria/504/00 (influenza B virus B/Victoria/504/00). The assay is described as follows: SPR (Biacore 2000), antibody captured by anti-IgG. Background: In SPR one partner is held on a chip, and binding of the other changes the refractive index at the surface.
Assay [7] concerns the target recombinant influenza A virus nucleoprotein (influenza A virus A/Puerto Rico/8/34, UniProt P03466 1-498). The assay is described as follows: ELISA on coated recombinant nucleoprotein, culture supernatant. In general terms: ELISA stands for enzyme-linked immunosorbent assay.
The target of assay [8] is nucleoprotein of influenza virus B/Victoria/504/00 (influenza B virus B/Victoria/504/00). In words: sandwich CLIA, acridinium label M2110171, S/N>=2.1.
The target is the same in assay [9]. In words: sandwich CLIA, acridinium label 23G327, S/N>=2.1.
Assay [10] has as its target T1, nucleoprotein of influenza virus …. The assay is described as follows: same-clone sandwich CLIA. This is another data set of the same source.
In assay [11] the target is T2, nucleoprotein of influenza virus B/Ann …. The assay is described as follows: same-clone sandwich CLIA. The source holds these as a separate data set.
The target in assay [12] is T3, nucleoprotein of influenza virus …. In words: same-clone sandwich CLIA. The source holds these as a separate data set.
Assay [13] concerns the target nucleoprotein of influenza virus A/Beijing/262/95 (H1N1) (influenza A virus A/Beijing/262/95 (H1N1)). In words: SPR (Biacore 2000), antibody fixed directly on CM5, virus 10 µg/mL.
Assay [14] addresses nucleoprotein of influenza virus A/Panama/2007/99 (H3N2) (influenza A virus A/Panama/2007/99 (H3N2)). The assay is described as follows: sandwich CLIA, acridinium label 23G285, S/N>=2.1.
In assay [15] the target is nucleoprotein of influenza virus A/Beijing/262/95 (H1N1) (influenza A virus A/Beijing/262/95 (H1N1)). The assay is described as follows: sandwich CLIA, acridinium label 23G285, S/N>=2.1.

Residue numbers refer to the chain shown, from its start. Where two headings read alike, the source gives them in different places.

“mouse anti-influenza A virus nucleoprotein monoclonal antibody ATCC HB-65”: the detection sensitivity in [1] and in assay [2] was 50 ng/mL in each case.

B1: human anti-influenza B virus nucleoprotein monoclonal antibody 23G327 (antibody, V domains shown)
VH: QVQLVQSGAEVKRPGASVKVSCKASGYNLIDFYVNWVRQVPGQGLEWMGYINPDSGGAHYEGKFQGRVIMTRDTSINTAYMELPSLTSDDTAVYFCARGASSGLLTYYYGLDVWGEGTTVIVSS
VL: DIQMTQSPSSLSASIGDRVTITCRASPGINSYLAWYQHKPGKAPKLLIYAASTLQSGVPSRFSGSGSGTDFTLTISSLQPEDVATYYCQKYNSAPWTFGPGTKVEIK
notes: also called 23G327 antibody
In the case of B1, the binding result in assay [3] is listed as “binds”; in assay [4], “binds”; in assay [5], “binds”; in [7] it was “no binding”. This molecule also returned a reactivity (bound antigen per bound antibody) relative to 41027 in [6] of 2 fold. Besides, in [6], the reactivity (bound antigen per bound antibody) relative to M2110171 turned out to be 1.2 fold. For the same molecule, in [6], the reactivity (bound antigen per bound antibody) relative to antibody 2/3 turned out to be 0.8 fold. Moreover, the detection sensitivity came to 31.3 ng/mL in [8] and 125 ng/mL in [9].

B2: human anti-influenza A virus nucleoprotein monoclonal antibody 23G285 (antibody, V domains shown)
VH: QVQLVQSGGGVVQPGRSLRLSCAASGFTFSRYGMHWVRQAPGKGLEWVAVILYEGINKDYADSVKGRFTISRDNSKNTLYLQMNSLRAEDTAVYYCARDRELRLDYWGQGTLVTVSS
VL: QSVLTQPPSVSGAPGQRVTFSCTGSSSNIGAGYDVNWYQQLPGTAPKVLIYGNTNRPSGVPDRFSASKSGTSASLAITGLQAEDEADYYCQSYDSSLRGYVFGTGTKVSVL
notes: also called 23G285 antibody
For the molecule B2, the binding result in assay [10], in [11] and in assay [12] was “no binding (tested: S/N<2.1)” in each case.

B3: human anti-influenza A virus nucleoprotein monoclonal antibody 23G272 (antibody, V domains shown)
VH: QVQLVQSGAEVKKPGSSVKVSCKATGDTFSSYSISWVRQAPGQGLEWMGRVTPSFGISLYAQKFQGRVTITADRSSSTAYMELNNLTSDDTAVYYCAAGGLVVVVANHWGQGTLVTVSS
VL: EIVLTQSPATLSASVGDRVTITCRASQDITSSLGWYQQRAGEAPKLLLFAASRLESGVPSRFSGSGSGTEYTLTISNLQPEDFATYYCLHYFGSRPWTFGQGTKVEIKR
notes: also called 23G272 antibody
As to B3, the binding result in assay [10], in assay [11] and in assay [12] was “no binding (tested: S/N<2.1)” throughout. Further, in assay [13], the amount of bound antigens relative to HB-65 was 10 fold.

B4: human anti-influenza A virus nucleoprotein monoclonal antibody 23G494 (antibody, V domains shown)
VH: QVQLVQSGGGLVKPGGSLRLSCAGSGFSFSDYYMTWIRQAPGKGLEWVSSINSGSTVTNYADSVQGRFTISRDKNSVYLQMNSLRTEDTAVYYCARDFGIKAGTSDYWGQGTLVTVSS
VL: DIQMTQSPSSLSASVGDRVTITCRASQTISNFLNWYQQKPGKAPKLLIYAASRLQSWVPSRFTGSGSGTDFALTISSLQPEDFATYYCQQTFSPRITFGPGTKVEMKR
notes: also called 23G494 antibody
Consider B4, for which the binding result in [10], in assay [11] and in assay [12] was “no binding (tested: S/N<2.1)” throughout.

B5: human anti-influenza A virus nucleoprotein monoclonal antibody 23G268 (antibody, V domains shown)
VH: QVQLVQSGAVVKKPGDSVKVSCKASGYTFTTYWMHWVRQAPGQGPEWMGIVNPTGGTVMYAKKFQGRVIMTRDTSTTTVFLQLNGLESEDTAIYYCARDLGPARVDFDWLSTFVSWGQGTLVTVSS
VL: DIQMTQSPSSLSASVGDRVIITCRASQGITRHLNWYQQKSGKAPKLLIYDASSLQSGVPSRFSGSGSGADFTLTISSVQPEDFATYYCQQSYSNPPTFGPGTKVDIKR
notes: also called 23G268 antibody
B5: the detection sensitivity in assay [14] and in assay [15] was 6.25 ng/mL in each case. Also, the binding result in assay [10], in [11] and in [12] was “no binding (tested: S/N<2.1)” in each case.

B6: human anti-influenza A virus nucleoprotein monoclonal antibody 23G312 (antibody, V domains shown)
VH: QVQLVQSGGGLVQPGRSLRLSCIASGFSFDDYAMHWVRQIPGKGLEWVSGISWNSGARGYADSVKGRFTISRDNAKNSLYLQMNSLRVGDTAFYYCARDMGAGPNDYDTSGNYPLHLYGMDVWGHGTTVTVSS
VL: EIVLTQSPATLSVSPGDRATLSCRASQSVSDKLAWYQQKPGQAPRLLIYGAYTRATGTPARFSGSGSGTEFTLSITGLQAEDFAIYYCHQYNNWPLTFGGGTKVDIK
notes: also called 23G312 antibody
With B6, the binding result in assay [10], in assay [11] and in assay [12] was “no binding (tested: S/N<2.1)” each time.

B7: human anti-influenza A virus nucleoprotein monoclonal antibody 23G447 (antibody, V domains shown)
VH: QVQLQESGPGLVKPSQTLSLTCSVSGGSISNPDHYWNWIRQPPGKGLEWIGYIYYTGRTWYSPSLKSRVSLSVDTSKSQFSLNVDSVIAADTAVYYCARSHVWFGELYWGQGALVTVSS
VL: QSVLTQPPSVSAAPGQKVTISCSGRSSNVGDNYVSWYQQFPGTAPKLLIYDNTKRPSGIPDRFSGSKSGTSATLGITGLQTGDEAAYYCATWDSVLSAGVFGGGTKLTVL
notes: also called 23G447 antibody
With B7, the binding result in assay [10], in assay [11] and in assay [12] was “no binding (tested: S/N<2.1)” throughout.

Values taken from patent US20110129816A1 (NATIONAL UNIVERSITY CORPORATION UNIVERSITY OF TOYAMA, published 2011).
